# Biological target: Cdc2-GFP (S. pombe, UniProt P04551 1-297)
# Assay: affinity purification with mass spectrometry
# Sequence of Cdc2-GFP (P04551 whole entry): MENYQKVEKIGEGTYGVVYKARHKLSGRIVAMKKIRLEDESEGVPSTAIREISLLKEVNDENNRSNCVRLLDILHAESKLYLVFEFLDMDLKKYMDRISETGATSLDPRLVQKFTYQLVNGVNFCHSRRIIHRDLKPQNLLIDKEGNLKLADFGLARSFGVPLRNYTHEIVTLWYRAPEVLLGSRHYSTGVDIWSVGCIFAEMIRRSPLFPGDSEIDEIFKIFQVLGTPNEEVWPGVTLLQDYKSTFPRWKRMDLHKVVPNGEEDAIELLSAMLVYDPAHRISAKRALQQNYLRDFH
binder,measurement,value
Wee1 (enzyme) MSSSSNTSSHRSYGLRRSQRSMNLNRATLLAPPTPSSLYDANNSTSSTSSQKPNTSFTSLFGPRKQTTSSPSFSHAAPLHPLSPPSFTHSQPQIQAQPVPRRPSLFDRPNLVSRSSSRLGDSPSLSPVAQVANPIHHTAPSPSDVRAFPIHKNASTGVKRSFFSSSMSNGAMSPPSHSPSPFLQSSQHIPPSTPAQKLRKKNNFDSFRISNSHISPFASGSFSPFATSSPNFLSTSTPAPPNSNNANPSTLFSSIPSSRHTTSNHFPSNSAQSSLFSPTARPLTARKLGFASSQTKSAVSNNHSRNSSKDASFMMKSFIPSNRSHPQTQQNESSLFSDNSMVNSSSNSFSLFPNATLPNPPSSELLTTPFQQIKPPSQVFMSTGLLSKQHRPRKNINFTPLPPSTPSKPSTFVRPHSSSTDSPPSPSTPSNTQTDSYFIQRENTPTNHNSIPTIQLEKSSMDFLRFDPPPSAVKTSHNYGLPFLSNQRCPATPTRNPFAFENTVSIHMDGRQPSPIKSRNNNQMSFAMEEEADVSQPSSSSFTLSFPSALTSSKVSSSTSHLLTRFRNVTLLGSGEFSEVFQVEDPVEKTLKYAVKKLKVKFSGPKERNRLLQEVSIQRALKGHDHIVELMDSWEHGGFLYMQVELCENGSLDRFLEEQGQLSRLDEFRVWKILVEVALGLQFIHHKNYVHLDLKPANVMITFEGTLKIGDFGMASVWPVPRGMEREGDCEYIAPEVLANHLYDKPADIFSLGITVFEAAANIVLPDNGQSWQKLRSGDLSDAPRLSSTDNGSSLTSSSRETPANSIIGQGGLDRVVEWMLSPEPRNRPTIDQILATDEVCWVEMRRKAGAIIYEGIHGSSSNPQGDQMMEDWQVNV,"fold increase in association with Cdc2, suc1^ts versus suc1+ cells",2.5 fold
Cdc25 (enzyme) MDSPLSSLSFTNTLSGKRNVLRPAARELKLMSDRNANQELDFFFPKSKHIASTLVDPFGKTCSTASPASSLAADMSMNMHIDESPALPTPRRTLFRSLSCTVETPLANKTIVSPLPESPSNDALTESYFFRQPASKYSITQDSPRVSSTIAYSFKPKASIALNTTKSEATRSSLSSSSFDSYLRPNVSRSRSSGNAPPFLRSRSSSSYSINKKKGTSGGQATRHLTYALSRTCSQSSNTTSLLESCLTDDTDDFELMSDHEDTFTMGKVADLPESSVELVEDAASIQRPNSDFGACNDNSLDDLFQASPIKPIDMLPKINKDIAFPSLKVRSPSPMAFAMQEDAEYDEQDTPVLRRTQSMFLNSTRLGLFKSQDLVCVTPKQSTKESERFISSHVEDLSLPCFAVKEDSLKRITQETLLGLLDGKFKDIFDKCIIIDCRFEYEYLGGHISTAVNLNTKQAIVDAFLSKPLTHRVALVFHCEHSAHRAPHLALHFRNTDRRMNSHRYPFLYYPEVYILHGGYKSFYENHKNRCDPINYVPMNDASHVMTCTKAMNNFKRNATFMRTKSYTFGQSVLASPDVNDSPTAMHSLSTLRRF,"fold increase in association with Cdc2, suc1^ts versus suc1+ cells",3 fold

# Source: article doi:10.1101/2025.07.04.663185 (bioRxiv, 2025)
